The text below walks through data of US7749976.

The chains are these.
B1: VHR (protein)
chain: MSGSFELSVQDLNDLLSDGSGCYSLPSQPCNEVTPRIYVGNASVAQDIPKLQKLGITHVLNAAEGRSFMHVNTNANFYKDSGITYLGIKANDTQEFNLSAYFERAADFIDQALAQKNGRVLVHCREGYSRSPTLVIAYLMMRQKMDVKSALSIVRQNREIGPNDGFLAQLCQLNDRLAKEGKLKP
B2: GST-PLIP (recombinant murine PLIP fusion protein with N-terminal GST and 6-His tags) (protein)
chain: MAASAWLEAGLARVLFYPTLLYTVFRGRVRGPAHRDWYHRIDHTVLLGALPLKNMTRRLVLDENVRGVITMNEEYETRFLCNTSKEWKKAGVEQLRLSTVDMTGVPTLANLHKGVQFALKYQALGQCVYVHCKAGRSRSATMVAAYLIQVHNWSPEEAIEAIAKIRSHISIRPSQLEVLKEFHKEITARAAKN
B3: TC-PTP (protein)
chain: MPTTIEREFEELDTQRRWQPLYLEIRNESHDYPHRVAKFPENRNRNRYRDVSPYDHSRVKLQNAENDYINASLVDIEEAQRSYILTQGPLPNTCCHFWLMVWQQKTKAVVMLNRIVEKESVKCAQYWPTDDQEMLFKETGFSVKLLSEDVKSYYTVHLLQLENINSGETRTISHFHYTTWPDFGVPESPASFLNFLFKVRESGSLNPDHGPAVIHCSAGIGRSGTFSLVDTCLVLMEKGDDINIKQVLLNMRKYRMGLIQTPDQLRFSYMAIIEGAKCIKGDSSIQKRWKELSKEDLSPAFDHSPNKIMTEKYN

Marks after values point to notes of the source that are not given here.

Sequence of MyBP Ser(P)/Tyr(P) (P02686 whole entry): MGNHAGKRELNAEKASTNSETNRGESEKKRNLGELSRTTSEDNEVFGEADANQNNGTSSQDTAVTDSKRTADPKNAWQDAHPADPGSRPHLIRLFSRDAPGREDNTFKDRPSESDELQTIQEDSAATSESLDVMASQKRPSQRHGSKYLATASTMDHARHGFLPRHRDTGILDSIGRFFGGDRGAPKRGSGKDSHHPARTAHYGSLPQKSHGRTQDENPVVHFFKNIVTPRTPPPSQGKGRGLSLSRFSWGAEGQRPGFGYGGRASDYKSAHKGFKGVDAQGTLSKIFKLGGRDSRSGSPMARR

The target in the first series is Casein Ser(P).
As for B1, the “Phosphatase activity (mole of phosphate released/min/mol of enzyme)” value is on record as ~0.0^b and the Phosphatase activity (mole of phosphate released/min/mol of enzyme) (mol/(min mol)) was 1.8.
The corresponding values for B2 are ~0.0^b and 0.2.
Taken in the same sequence, the figures for B3 were ~0.0^b and 1440.

A further series deals with MyBP Tyr(P).
Sequence of MyBP Tyr(P) (P02686 whole entry): as above
On to B1, for which the Phosphatase activity (mole of phosphate released/min/mol of enzyme) (mol/(min mol)) came out at 0.5.
Turning to B2, the Phosphatase activity (mole of phosphate released/min/mol of enzyme) (mol/(min mol)) is 0.1.
Still for that read-out and setting: with B3 the figure was 195.

A further series addresses MyBP Ser(P)/Tyr(P).
Take B1: the “Phosphatase activity (mole of phosphate released/min/mol of enzyme)” value was ~0.0^b.
On to B2, for which the “Phosphatase activity (mole of phosphate released/min/mol of enzyme)” value is recorded as ~0.0^b.
For B3, the “Phosphatase activity (mole of phosphate released/min/mol of enzyme)” value is listed as ~0.0^b.
